Data as given in US20030157712A1, “Methods for determining cell responses through EphB receptors” (priority 1997, published 2003).

Legend:
HEK293 cells = test: Solid phase cell attachment assay (HEK293); type: cell-based, human
Method: Cell culture and transfection. Human embryonic kidney cells, HEK293, were passaged in minimum essential medium (Life Technologies) supplemented with 10% fetal bovine serum (Hyclone Laboratories, Logan, Utah). HRMEC were cultured as described (12). HEK293 cells were transfected with Lipofectamine Plus (Life Technologies) as described by the manufacturer. The expression constructs pSRα-hEphB1-HA, pSRα-hEphB1-HA-K652R, pSRα-hEphB1-HA-Y596F and pSRα-hEphB1-HA-Y929F have been described previously (45,46). Cell attachment assays were performed 48 hours after transfection.
Solid phase cell attachment assays. Forty-eight-well plates (Falcon) were coated with a layer of nitrocellulose (Schleicher & Schuell) and allowed to air dry as described (47). Coated wells were incubated overnight at 4° C. with PBS containing matrix proteins at the indicated concentrations alone (no addition, NA) or in combination with dimeric EphrinB1/Fc. Two hours prior to assay, wells were washed twice then blocked at 37° C. with 1% BSA. Serum starved cells were harvested in 2 mM EDTA in PBS (HEK293) or recovered by trypsinization (HRMEC), washed twice in serum free medium containing 1% BSA, then plated at a density of 0.7-1×10^5 cells per well. […] Adherent cells were fixed with 2% glutaraldehyde, stained with 0.5% crystal violet (in EtOH), and quantified by OD reading at 570 nm. […]

HRMEC [1] = settings: background art; cited from earlier work
HUVEC [2] = test: Two dimensional capillary-like assembly assay (HUVEC); type: cell-based, human; settings: Matrigel-coated surfaces, defined medium; vascular bed comparison
Method: (§1) For these studies, HRMEC or HUVEC were plated on Matrigel-coated surfaces in defined medium in a two dimensional capillary-like assembly assay. Ephrin-B1 promoted capillary-like assembly of HRMEC, but not HUVEC, while ephrin-A1 promoted assembly of HUVEC but not HRMEC, in identical media at concentrations appropriate for their respective affinities for EphB1 and EphA2. In each cell type, ephrin-B1 and ephrin-A1 promoted tyrosine phosphorylation of 130 kDa EphB1 and EphA2, both of which are expressed in each system.

α5β1 integrin = test: Surface biotinylation and integrin immunoprecipitation (HEK293); type: cell-based, human; settings: 60 min on coated dishes
Method: (§2) Surface biotinylation and integrin immunoprecipitation. To determine if surface integrin expression was altered by transfection and/or exposure to ephrinB1/Fc, cells were biotinylated for 30 min at 4° C. with 0.5 mg/ml Sulfo-NHS-LC-Biotin (Pierce, Rockford, Ill.) before plating onto 60 mm dishes coated with nitrocellulose, fibrinogen and EphrinB1/Fc. After a 60 min incubation at 37° C., cells were harvested in WG buffer (15) and immunoprecipitation performed with 2 ug of the integrin antibodies used in the competition experiments. After SDS-PAGE (non-reducing conditions) and Western blotting, biotinylated proteins were detected by enhanced chemiluminescence using ECL Western Blotting Detection (Amersham).

αvβ3 integrin = test: Surface biotinylation and integrin immunoprecipitation (endothelial cells); type: cell-based, human; settings: 60 min on coated dishes
Method: as §2

HUVEC [3] = settings: background art; cited from earlier work
EphB1 = target: T1, EphB1 (Homo sapiens, UniProt P54762); test: EphB1 immunoprecipitation and phosphotyrosine immunoblot; type: cell-based; settings: in each cell type (HRMEC, HUVEC)
T1 construct: Ligand stimulation and immunoprecipitation of endogenous EphB receptors; endogenous in cells; host or cells: HRMEC (human); P19 (murine teratocarcinoma) in part of the results
T1 sequence (P54762 18-984): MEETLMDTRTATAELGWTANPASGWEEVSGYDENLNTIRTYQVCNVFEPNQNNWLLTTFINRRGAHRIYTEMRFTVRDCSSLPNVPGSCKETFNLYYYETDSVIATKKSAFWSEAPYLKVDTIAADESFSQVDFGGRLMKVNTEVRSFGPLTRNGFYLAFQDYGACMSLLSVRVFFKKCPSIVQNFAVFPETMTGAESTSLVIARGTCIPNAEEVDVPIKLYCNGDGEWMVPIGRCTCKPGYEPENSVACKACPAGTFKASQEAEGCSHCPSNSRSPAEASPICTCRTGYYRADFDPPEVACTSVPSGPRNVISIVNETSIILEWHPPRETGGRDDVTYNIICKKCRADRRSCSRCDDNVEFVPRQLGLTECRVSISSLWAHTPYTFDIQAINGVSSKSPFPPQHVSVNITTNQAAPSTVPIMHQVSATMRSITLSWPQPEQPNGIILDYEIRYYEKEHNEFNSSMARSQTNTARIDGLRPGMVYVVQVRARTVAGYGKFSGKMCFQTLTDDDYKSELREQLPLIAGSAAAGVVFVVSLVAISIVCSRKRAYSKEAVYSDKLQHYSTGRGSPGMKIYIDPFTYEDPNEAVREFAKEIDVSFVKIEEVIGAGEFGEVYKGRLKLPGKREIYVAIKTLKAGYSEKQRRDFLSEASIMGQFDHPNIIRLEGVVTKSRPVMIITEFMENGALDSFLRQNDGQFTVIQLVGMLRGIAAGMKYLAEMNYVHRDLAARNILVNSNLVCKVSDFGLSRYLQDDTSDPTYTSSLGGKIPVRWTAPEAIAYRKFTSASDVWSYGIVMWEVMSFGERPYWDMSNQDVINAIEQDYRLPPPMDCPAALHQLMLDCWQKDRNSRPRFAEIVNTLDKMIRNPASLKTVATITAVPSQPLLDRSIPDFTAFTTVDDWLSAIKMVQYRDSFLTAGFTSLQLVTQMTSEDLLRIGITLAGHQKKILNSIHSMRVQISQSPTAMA

HRMEC [4] = test: Endothelial assembly into capillary-like structures (HRMEC); type: cell-based, human; settings: Matrigel-coated surfaces, defined medium; vascular bed comparison
Method: Endothelial assembly into capillary-like structures. Twelve well plates (Falcon) were coated with thin layers of Matrigel. HRMEC were plated at a density of 4×10^4 cells/well in DME containing 1% fetal bovine serum. Indicated agonists, control peptides, alone, or in combination with the EphB1/Fc antagonist (1000 ng ml^−1) (FIG. 5) were added at the time of plating. Cells were incubated at 37° C. for 8 h and photographed using phase microscopy (magnification 100×) (Diaphot-TMD, Nikon).

EphA2 = target: T2, EphA2 (Homo sapiens, UniProt P29317); test: EphA2 tyrosine phosphorylation in endothelial cells; type: cell-based; settings: in each cell type (HRMEC, HUVEC)
T2 construct: 130 kDa EphB1 and EphA2, both of which are expressed in each system; endogenous in cells; host or cells: HRMEC and HUVEC
Method: as §1

B1: Ephrin-B1: transmembrane ligand of EphB subclass receptors (protein)
chain: LAKNLEPVSWSSLNPKFLSGKGLVIYPKIGDKLDIICPRAEAGRPYEYYKLYLVRPEQAAACSTVLDPNVLVTCNRPEQEIRFTIKFQEFSPNYMGLEFKKHHDYYITSTSNGSLEGLENREGGVCRTRTMKIIMKVGQDPNAVTPEQLTTSRPSKEADNTVKMATQAPGSRGSLGDSDGKHETVNQEEKSGPGASGGSSGDPDGFFNSK
In the case of B1, the “attachment to fibrinogen of HEK293 cells transiently expressing EphB1” value (HEK293 cells; 48 hours after transfection) is given as “increases in attachment”, the “attachment to fibrinogen or RGD peptide of untransfected HEK293 cells” value (HEK293 cells; basal conditions, no endogenous EphB1 or EphB2) is given as “no ephrin-B1 dependent change” and the “assembly of HRMEC into capillary-like structures (reference 8)” value (HRMEC [1]) is given as “promotes”. The “capillary-like assembly of HUVEC” value (HUVEC [2]) was “not”, the “surface expression of HEK293 α5β1 integrin” value (α5β1 integrin) was “did not increase” and the “surface expression of endothelial αvβ3 integrin” value (αvβ3 integrin) was “did not increase”. For the same molecule, the “capillary-like assembly of HUVEC (reference 8)” value (HUVEC [3]) was “not responsive”, the “tyrosine phosphorylation of 130 kDa EphB1” value (EphB1) was “promoted” and the “capillary-like assembly of HRMEC” value (HRMEC [4]) was “promoted”.

B2: ephrin-A1: GPI-linked membrane protein, primary ligand for EphA2 (Eck) (protein)
chain: DRHTVFWNSSNPKFRNEDYTIHVQLNDYVDIICPHYEDHSVADAAMEQYILYLVEHEEYQLCQPQSKDQVRWQCNRPSAKHGPEKLSEKFQRFTPFTLGKEFKEGHSYYYISKPIHQHEDRCLRLKVTVSGKITHSPQAHDNPQEKRLAADDPEVRVLHSIGHS
In the case of B2, the “assembly of HRMEC into capillary-like structures (reference 8)” value (HRMEC [1]) is listed as “no capillary-assembly activity”, the “capillary-like assembly of HUVEC” value (HUVEC [2]) is listed as “promoted” and the “capillary-like assembly of HUVEC (reference 8)” value (HUVEC [3]) is listed as “promotes”. For the same molecule, the “tyrosine phosphorylation of 130 kDa EphA2” value (EphA2) was “promoted” and the “capillary-like assembly of HRMEC” value (HRMEC [4]) was “not”.
